Results: patent US20250218531A1 (ABSCI, published 2025)

biological target: T1, HER2 (human epidermal growth factor receptor 2) (human, UniProt P04626 23-629); assay: SPR
T1 construct: also called Antigen: HER2

Row | Binder | Kd [nM] | log(KD (M))
1 | Trastuzumab HCDR3 variant ARYGGGYYYMDY (Fab, V domains shown) VH: EVQLVESGGGLVQPGGSLRLSCAASGFNIKDTYIHWVRQAPGKGLEWVARIYPTNGYTRYADSVKGRFTISADTSKNTAYLQMNSLRAEDTAVYYCARYGGGYYYMDYWGQGTLVTVSS VL: not shown | 13.3 | -7.88
2 | Trastuzumab HCDR3 variant ALWGFGWYYFDY (Fab, V domains shown) VH: EVQLVESGGGLVQPGGSLRLSCAASGFNIKDTYIHWVRQAPGKGLEWVARIYPTNGYTRYADSVKGRFTISADTSKNTAYLQMNSLRAEDTAVYYCALWGFGWYYFDYWGQGTLVTVSS VL: not shown | 5.31 | -8.28
3 | Trastuzumab HCDR3 variant ARWGGDFYAMDY (Fab, V domains shown) VH: EVQLVESGGGLVQPGGSLRLSCAASGFNIKDTYIHWVRQAPGKGLEWVARIYPTNGYTRYADSVKGRFTISADTSKNTAYLQMNSLRAEDTAVYYCARWGGDFYAMDYWGQGTLVTVSS VL: not shown | 9.49 | -8.02
4 | Trastuzumab HCDR3 variant ARWGGYYYYFDY (Fab, V domains shown) VH: EVQLVESGGGLVQPGGSLRLSCAASGFNIKDTYIHWVRQAPGKGLEWVARIYPTNGYTRYADSVKGRFTISADTSKNTAYLQMNSLRAEDTAVYYCARWGGYYYYFDYWGQGTLVTVSS VL: not shown | 12.8 | -7.89
5 | Trastuzumab HCDR3 variant ARFGSYYYYFDY (Fab, V domains shown) VH: EVQLVESGGGLVQPGGSLRLSCAASGFNIKDTYIHWVRQAPGKGLEWVARIYPTNGYTRYADSVKGRFTISADTSKNTAYLQMNSLRAEDTAVYYCARFGSYYYYFDYWGQGTLVTVSS VL: not shown | 13 | -7.89
6 | Trastuzumab HCDR3 variant ARFGNSGYQFDY (Fab, V domains shown) VH: EVQLVESGGGLVQPGGSLRLSCAASGFNIKDTYIHWVRQAPGKGLEWVARIYPTNGYTRYADSVKGRFTISADTSKNTAYLQMNSLRAEDTAVYYCARFGNSGYQFDYWGQGTLVTVSS VL: not shown | 10.5 | -7.98
7 | Trastuzumab HCDR3 variant ARWGDGYYYMDY (Fab, V domains shown) VH: EVQLVESGGGLVQPGGSLRLSCAASGFNIKDTYIHWVRQAPGKGLEWVARIYPTNGYTRYADSVKGRFTISADTSKNTAYLQMNSLRAEDTAVYYCARWGDGYYYMDYWGQGTLVTVSS VL: not shown | 5.57 | -8.25
8 | Trastuzumab HCDR3 variant ARWGGYYYYMDY (Fab, V domains shown) VH: EVQLVESGGGLVQPGGSLRLSCAASGFNIKDTYIHWVRQAPGKGLEWVARIYPTNGYTRYADSVKGRFTISADTSKNTAYLQMNSLRAEDTAVYYCARWGGYYYYMDYWGQGTLVTVSS VL: not shown | 3.62 | -8.44
9 | Trastuzumab HCDR3 variant AKYSFGGYYYGD (Fab, V domains shown) VH: EVQLVESGGGLVQPGGSLRLSCAASGFNIKDTYIHWVRQAPGKGLEWVARIYPTNGYTRYADSVKGRFTISADTSKNTAYLQMNSLRAEDTAVYYCAKYSFGGYYYGDWGQGTLVTVSS VL: not shown | 19.1 | -7.72
10 | Trastuzumab HCDR3 variant ARWGGNYYYMDY (Fab, V domains shown) VH: EVQLVESGGGLVQPGGSLRLSCAASGFNIKDTYIHWVRQAPGKGLEWVARIYPTNGYTRYADSVKGRFTISADTSKNTAYLQMNSLRAEDTAVYYCARWGGNYYYMDYWGQGTLVTVSS VL: not shown | 4.22 | -8.37
11 | Trastuzumab HCDR3 variant ARFGGYYYYFDY (Fab, V domains shown) VH: EVQLVESGGGLVQPGGSLRLSCAASGFNIKDTYIHWVRQAPGKGLEWVARIYPTNGYTRYADSVKGRFTISADTSKNTAYLQMNSLRAEDTAVYYCARFGGYYYYFDYWGQGTLVTVSS VL: not shown | 23.5 | -7.63
12 | Trastuzumab HCDR3 variant ARWAGDYYVMDY (Fab, V domains shown) VH: EVQLVESGGGLVQPGGSLRLSCAASGFNIKDTYIHWVRQAPGKGLEWVARIYPTNGYTRYADSVKGRFTISADTSKNTAYLQMNSLRAEDTAVYYCARWAGDYYVMDYWGQGTLVTVSS VL: not shown | 7.68 | -8.11
13 | Trastuzumab HCDR3 variant ARWGGYYYYFDV (Fab, V domains shown) VH: EVQLVESGGGLVQPGGSLRLSCAASGFNIKDTYIHWVRQAPGKGLEWVARIYPTNGYTRYADSVKGRFTISADTSKNTAYLQMNSLRAEDTAVYYCARWGGYYYYFDVWGQGTLVTVSS VL: not shown | 13 | -7.89
14 | Trastuzumab HCDR3 variant ALYNYYYYAFGF (Fab, V domains shown) VH: EVQLVESGGGLVQPGGSLRLSCAASGFNIKDTYIHWVRQAPGKGLEWVARIYPTNGYTRYADSVKGRFTISADTSKNTAYLQMNSLRAEDTAVYYCALYNYYYYAFGFWGQGTLVTVSS VL: not shown | 20.6 | -7.69
15 | Trastuzumab HCDR3 variant AIYSDGAYFYGR (Fab, V domains shown) VH: EVQLVESGGGLVQPGGSLRLSCAASGFNIKDTYIHWVRQAPGKGLEWVARIYPTNGYTRYADSVKGRFTISADTSKNTAYLQMNSLRAEDTAVYYCAIYSDGAYFYGRWGQGTLVTVSS VL: not shown | 10.6 | -7.98
16 | Trastuzumab HCDR3 variant AAYTNTFYYLVY (Fab, V domains shown) VH: EVQLVESGGGLVQPGGSLRLSCAASGFNIKDTYIHWVRQAPGKGLEWVARIYPTNGYTRYADSVKGRFTISADTSKNTAYLQMNSLRAEDTAVYYCAAYTNTFYYLVYWGQGTLVTVSS VL: not shown | 19.8 | -7.7
17 | Trastuzumab HCDR3 variant ARWGFSMYSFDY (Fab, V domains shown) VH: EVQLVESGGGLVQPGGSLRLSCAASGFNIKDTYIHWVRQAPGKGLEWVARIYPTNGYTRYADSVKGRFTISADTSKNTAYLQMNSLRAEDTAVYYCARWGFSMYSFDYWGQGTLVTVSS VL: not shown | 7.5 | -8.12
18 | Trastuzumab HCDR3 variant ARWGDYYYYMDY (Fab, V domains shown) VH: EVQLVESGGGLVQPGGSLRLSCAASGFNIKDTYIHWVRQAPGKGLEWVARIYPTNGYTRYADSVKGRFTISADTSKNTAYLQMNSLRAEDTAVYYCARWGDYYYYMDYWGQGTLVTVSS VL: not shown | 2.36 | -8.63
19 | Trastuzumab HCDR3 variant ALYGNYSYGFAR (Fab, V domains shown) VH: EVQLVESGGGLVQPGGSLRLSCAASGFNIKDTYIHWVRQAPGKGLEWVARIYPTNGYTRYADSVKGRFTISADTSKNTAYLQMNSLRAEDTAVYYCALYGNYSYGFARWGQGTLVTVSS VL: not shown | 12.6 | -7.9
20 | Trastuzumab HCDR3 variant ARWFGGYYHMDY (Fab, V domains shown) VH: EVQLVESGGGLVQPGGSLRLSCAASGFNIKDTYIHWVRQAPGKGLEWVARIYPTNGYTRYADSVKGRFTISADTSKNTAYLQMNSLRAEDTAVYYCARWFGGYYHMDYWGQGTLVTVSS VL: not shown | 8.52 | -8.07
21 | Trastuzumab HCDR3 variant AKYGSNYYYLGS (Fab, V domains shown) VH: EVQLVESGGGLVQPGGSLRLSCAASGFNIKDTYIHWVRQAPGKGLEWVARIYPTNGYTRYADSVKGRFTISADTSKNTAYLQMNSLRAEDTAVYYCAKYGSNYYYLGSWGQGTLVTVSS VL: not shown | 18.7 | -7.73
22 | Trastuzumab HCDR3 variant AKYGDDNYGFSH (Fab, V domains shown) VH: EVQLVESGGGLVQPGGSLRLSCAASGFNIKDTYIHWVRQAPGKGLEWVARIYPTNGYTRYADSVKGRFTISADTSKNTAYLQMNSLRAEDTAVYYCAKYGDDNYGFSHWGQGTLVTVSS VL: not shown | 15.4 | -7.81
23 | Trastuzumab HCDR3 variant ARWFYDYYYMDY (Fab, V domains shown) VH: EVQLVESGGGLVQPGGSLRLSCAASGFNIKDTYIHWVRQAPGKGLEWVARIYPTNGYTRYADSVKGRFTISADTSKNTAYLQMNSLRAEDTAVYYCARWFYDYYYMDYWGQGTLVTVSS VL: not shown | 12.6 | -7.9
